Drawing on ChEMBL document CHEMBL1137897, “Inhibition of lysosomal cysteine proteases by chrysotherapeutic compounds: a possible mechanism for the antiarthritic activity of Au(I)” (Bioorg Med Chem Lett, 2004), this text covers Km for 1 protein.

Data set [1] concerns the target AURANOFIN
To be noted: Paramecium tetraurelia; 3 uM.
Description: Michaelis-Menten constant determined against Paramecium tetraurelia cathepsin L at 3 uM

For data set [2], the target named is AURANOFIN
To be noted: Paramecium tetraurelia; 30 uM.
Description: Michaelis-Menten constant determined against Paramecium tetraurelia cathepsin L at 30 uM

In data set [3] the target is AURANOFIN
To be noted: Paramecium tetraurelia; 300 nM.
Description: Michaelis-Menten constant determined against Paramecium tetraurelia cathepsin L at 300 nM

In data set [4] the target is AURANOFIN
Description: Michaelis-Menten constant determined against Paramecium tetraurelia cathepsin L at 300 uM
To be noted: Paramecium tetraurelia; 300 uM.

B1: Putative cathepsin L 3 (Paramecium tetraurelia), Q94715 (protein)
chain: MKQFLTAAIVTLLMTAGYYHLQEDDTNDFERWALKNNKFYTESEKLYRMEIYNSNKRMIEEHNQREDVTYQMGENQFMTLSHEEFVDLYLQKSDSSVNIMGASLPEVQLEGLGAVDWRNYTTVKEQGQCASGWAFSVSNSLEAWYAIRGFQKINASTQQIVDCDYNNTGCSGGYNAYAMEYVLRVGLVSSTNYPYVAKNQTCKQSRNGTYFINGYSFVGGSQSNLQYYLNNYPISVGVEASNWQFYRSGLFSNCSSNGTNHYALAVGFDSANNWIVQNSWGTQWGESGNIRLYPQNTCGILNYPYQVY
One may read the Km as the concentration of substrate that gives half-maximal velocity. In the case of B1, the Km in data set [1] came to 32 µM; in data set [2] it was 47 µM; in data set [3], 27 µM; in data set [4] it was 49 µM.
